Data on 3 molecules can be found in patent publication US20250197491A1 (MACOMICS, published 2025).

Experiment [1] concerns the target T1, human LILRB1 ectodomain fused to mIgG2a Fc (human).
T1 construct: also called human LILRB1-mIgG2a; full length LILRB1 ectodomain
Description: summary table (ELISA); Y = Yes. On the technique in general: In an ELISA, binding on a coated surface is turned into a signal by an enzyme label.

In experiment [2] the target is T2, Human LILRB1(I142T/S155I) ectodomain fused to mIgG2aFc (human).
T2 construct: The entry already carries the two substitutions
Description: ELISA, antigen coated, 10 nM antibody. The source says:
(§1) FIG. 3. Mixed LILRB1 and LILRB2 expression in TAMs from melanoma cancer patients. Analysis of LILRB1 and LILRB2 detection in macrophages in pre- and post-anti-PD-1 and/or anti-CTLA-4 therapy treated melanoma patients (n=33) is shown using Smart-seq2 data from Sade-Feldman et al. https://pubmed.ncbi.nlm.nih.gov/30633907/FIG. 4. Binding to domains of human LILRB1. Plates were coated with recombinant full length LILRB1 ectodomain (SEQ ID NO: 41) or a protein comprising domain 1 and 2 of human LILRB1 protein (SEQ ID NO: 42), and then incubated with 10 nM Clones 1-5, Reference Ab 1, and Isotype control. The bound antibodies were detected using HRP-labeled secondary antibodies and the results were plotted on the graph as absorbance measured at 450 nm.
(§2) Binding to allelic forms of LILRB1. There are 4 major allelic variants of human LILRB1 protein ectodomain. The variants of LILRB1 were expressed as recombinant proteins comprising a modified LILRB1 ectodomain and mouse IgG2 Fc region (SEQ ID NO: 50 and 51) in suspension CHO cells, and purified by using techniques that were known in the art. These recombinant proteins were then used in the direct enzyme-linked immunosorbent assay (ELISA) to determine the antibodies potential to bind different allelic forms of LILRB1. In short, Maxisorp (Nunc) or similar immune-assay plates were coated with solutions of target proteins in PBS, at 4° C., overnight. Plates were then washed with PBS, blocked with 5% milk in PBS, and washed again. Test antibodies diluted in PBS were then added to the plates and incubated at room temperature for at least 1h. Plates were subsequently washed with PBS/0.05% Tween-20 (PBST) and incubated with a solution of horse radish peroxidase (HRP) labelled secondary antibodies at room temperature for at least 1 h. After washing with PBST and PBS, bound antibodies were detected using the 3,3′,5,5;-tetramethylbenzidine (TMB) chromogenic solution. After 5 to 10 minutes, the reaction was stopped with 1% sulphuric acid and absorbance read at 450 nm.
(§3) There are four major allelic variants within the ecto-domain of LILRB1 in human population [Human Molecular Genetics, 2005, Vol. 14, 2469-2480]; namely c.203T>C (L68P), c.277G>A (A93T), c.425T>C (I142T), and c.464G>T (S155I).

For experiment [3], the target named is T3, Human LILRB1(L68P/A93T) ectodomain fused to mIgG2aFc (human).
T3 construct: The entry already carries the two substitutions
Description: ELISA, antigen coated, 10 nM antibody.
Excerpt: as §1, §2, §3

The target in experiment [4] is T4, Human LILRB1 (D1-D2) fused to mouse IgG2a Fc (human).
T4 construct: also called truncated (D1-D2) version of the LILRB1 ecto-domain
Description: summary table (ELISA); N = No.

The target of experiment [5] is T5, Cynomolgus monkey (Macaca fascicularis) LILRB ectodomain fused to mIgG2a (cynomolgus monkey (Macaca fascicularis)).
T5 construct: also called cynomolgus LILRB protein
Description: summary table (ELISA); Rhesus & Cyno LILRB1/2 binding; Y = Yes.

Experiment [6] concerns the target T6, Rhesus monkey (Macaca mulatta) LILRB ectodomain fused to mIgG2a Fc (rhesus monkey (Macaca mulatta)).
T6 construct: also called rhesus LILRB-mIgG2a; rhesus LILRB protein
The experiment is described as above.

In experiment [7] the target is LILRB2 recombinant, full-length ectodomain (LILRB2 22-458) (human, UniProt Q8N423 22-458). Description: multi-point ELISA, antigen coated, apparent EC50. The method, then: (§4) FIG. 32. Binding of Clones 1-5 to selected LILR family members tested by multiple point ELISA. Recombinant LILRB1, LILRB2, LILRB3, LILRA1, LILRA3, LILRA4, and LILRA6, or irrelevant control protein were coated on the ELISA plates. The plates were then blocked with milk in PBST. Next, the plates were incubated with serial dilutions (12.5 nM to 0.02 nM) of Clones 1-5 (A-E). Bound antibodies were detected using HRP-conjugated anti-human Fc antibodies and the chromogenic substrate.
(§5) Binding of Clones 1-5 to selected LILR family members tested by multiple point ELISA. (FIG. 32) Recombinant LILRB1, LILRB2, LILRB3, LILRA1, LILRA3, LILRA4, LILRA6, or irrelevant control protein were coated on the ELISA plates. The plates were then blocked with milk in PBST. Next, the plates were incubated with serial dilutions (12.5 nM to 0.02 nM) of Clone 1-5 (A-E). Bound antibodies were detected using HRP-conjugated anti-human Fc antibodies and the chromogenic substrate.

Experiment [8] concerns the target LILRB3 recombinant, full-length ectodomain (LILRB3 24-443) (human, UniProt O75022 24-443). Description: multi-point ELISA, antigen coated, apparent EC50. Here is the method:
as §4, §5

Experiment [9] has as its target LILRB1 recombinant, full-length ectodomain (human, UniProt Q8NHL6 24-461). Description: multi-point ELISA, antigen coated, apparent EC50. Here is the method: as §4, §5
The next experiment has as its target T7, Human full length LILRA3 (human, UniProt Q8N6C8 24-439).
T7 construct: Commercial recombinant protein; also the parent of the LILRA3 peptide microarrays
Description: multi-point ELISA, antigen coated, apparent EC50. The method, then: as §4, §5

Experiment [10] has as its target LILRA6 recombinant, full-length ectodomain (LILRA6 24-447) (human, UniProt Q6PI73 24-447). Description: multi-point ELISA, antigen coated, apparent EC50. The method, then: as §4, §5
A further experiment concerns the target T8, Human LILRA1 ectodomain (human, UniProt O75019 17-461).
T8 construct: Recombinant protein from a commercial source
Description: multi-point ELISA, antigen coated, apparent EC50. Here is the method:
as §4, §5

Experiment [11] concerns the target LILRA4 recombinant, full-length ectodomain (LILRA4 24-446) (human, UniProt P59901 24-446). Description: multi-point ELISA, antigen coated, apparent EC50. Here is the method:
as §4, §5

The next experiment addresses T9, Human LILRA2 ectodomain (human, UniProt Q8N149 24-449).
T9 construct: Recombinant protein from a commercial source
Description: summary table (single point ELISA); N = No.

For experiment [12], the target named is LILRA5 recombinant, full-length ectodomain (LILRA5 42-268) (human, UniProt A6NI73 42-268). Description: summary table (single point ELISA); N = No.
Experiment [13] concerns the target LILRB4 recombinant, full-length ectodomain (LILRB4 17-257) (human, UniProt Q8NHJ6 22-257). Description: summary table (single point ELISA); N = No.
For experiment [14], the target named is LILRB5 recombinant, full-length ectodomain (LILRB5 18-456) (human, UniProt O75023 24-456). Description: summary table (single point ELISA); N = No.
Another experiment concerns the target T10, Human full length LILRB2 (human, UniProt Q8N423 22-597).
T10 construct: Over-expressed on HEK293 cells for flow cytometry; Also used here as the parent protein of the D3-D4 peptide microarrays; also called LILRB2 on HEK293 cells
Description: flow cytometry, displacement of PE-labelled HLA-A2, HLA-E and HLA-G multimers from HEK293 cells overexpressing LILRB2. Here is the method: (§6) To investigate if the Antibodies 1 to 5 could neutralize binding of other HLA-As to LILRB1 or to LILRB2, HEK293 cells overexpressing the receptors were incubated with constant concentrations of PE-labelled HLA-A2, HLA-E, and HLA-G multimers and increasing concentrations of Antibodies 1 to 5 or the reference antibodies. The ability to neutralize binding of HLA to the cells was determined by flow cytometry (FIG. 21). None of Antibodies 1 to 5 neutralized binding of HLA-A (A), HLA-E (B), and […] to LILRB1 protein, up to the concentrations of 100 nM, whereas Reference 1 antibody (LILRB1 specific) and Reference 3 antibody (LILRB1/2 specific) neutralized the binding with an IC₅₀ in the sub- or low-nM range. Similarly, none of Antibodies 1 to 5 neutralised efficiently the binding of HLA-A (E) and HLA-G (G). […] Reference Antibody 2 (LILRB2 specific) and Reference Antibody 3 (LILRB1/2 specific), inhibited the binding for all HLAs, with IC₅₀ with sub- or low-nM range.

The target in the next experiment is T11, Human full length LILRB1 (human, UniProt Q8NHL6 24-650).
T11 construct: Over-expressed on HEK293 cells for flow cytometry; also called LILRB1 on HEK293 cells; cell membrane embedded LILRB1
Description: flow cytometry, displacement of PE-labelled HLA-A2, HLA-E and HLA-G multimers from HEK293 cells overexpressing LILRB1. Here is the method:
as §6

T10 sequence (Q8N423 other isoform, or with tags, fused parts or gaps limits assumed): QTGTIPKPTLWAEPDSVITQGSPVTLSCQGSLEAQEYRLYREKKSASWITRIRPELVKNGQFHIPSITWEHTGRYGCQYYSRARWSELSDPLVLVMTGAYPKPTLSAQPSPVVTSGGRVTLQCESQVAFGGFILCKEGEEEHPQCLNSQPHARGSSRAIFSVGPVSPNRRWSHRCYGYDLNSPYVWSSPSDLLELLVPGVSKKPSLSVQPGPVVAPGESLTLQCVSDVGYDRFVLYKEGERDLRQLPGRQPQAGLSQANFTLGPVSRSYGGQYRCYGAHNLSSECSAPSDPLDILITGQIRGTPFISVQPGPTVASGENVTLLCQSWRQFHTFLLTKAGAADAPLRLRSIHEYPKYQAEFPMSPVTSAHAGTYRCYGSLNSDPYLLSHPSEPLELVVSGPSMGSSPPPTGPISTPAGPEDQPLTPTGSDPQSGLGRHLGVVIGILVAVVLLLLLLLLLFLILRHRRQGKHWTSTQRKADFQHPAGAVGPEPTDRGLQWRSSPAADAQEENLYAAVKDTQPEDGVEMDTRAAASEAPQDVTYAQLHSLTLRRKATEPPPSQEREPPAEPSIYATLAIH
T5 sequence (chain, as listed by the source limits assumed): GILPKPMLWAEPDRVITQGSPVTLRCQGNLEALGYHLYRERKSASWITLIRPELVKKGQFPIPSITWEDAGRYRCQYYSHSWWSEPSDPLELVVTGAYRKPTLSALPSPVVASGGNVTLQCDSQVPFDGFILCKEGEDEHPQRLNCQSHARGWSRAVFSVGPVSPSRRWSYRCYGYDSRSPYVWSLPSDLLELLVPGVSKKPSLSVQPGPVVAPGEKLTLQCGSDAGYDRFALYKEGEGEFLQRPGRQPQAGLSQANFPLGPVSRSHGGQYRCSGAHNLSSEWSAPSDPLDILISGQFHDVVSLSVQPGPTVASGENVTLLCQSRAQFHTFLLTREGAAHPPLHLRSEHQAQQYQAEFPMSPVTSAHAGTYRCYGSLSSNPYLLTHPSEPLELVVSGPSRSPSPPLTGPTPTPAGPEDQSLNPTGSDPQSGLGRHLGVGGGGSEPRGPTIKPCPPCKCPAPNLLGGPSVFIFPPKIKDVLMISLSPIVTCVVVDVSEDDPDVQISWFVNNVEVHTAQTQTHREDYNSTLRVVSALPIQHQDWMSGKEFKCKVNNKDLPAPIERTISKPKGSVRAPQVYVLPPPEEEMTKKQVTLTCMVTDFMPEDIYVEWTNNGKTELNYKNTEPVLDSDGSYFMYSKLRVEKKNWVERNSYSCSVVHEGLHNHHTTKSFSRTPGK
T6 sequence (chain, as listed by the source limits assumed): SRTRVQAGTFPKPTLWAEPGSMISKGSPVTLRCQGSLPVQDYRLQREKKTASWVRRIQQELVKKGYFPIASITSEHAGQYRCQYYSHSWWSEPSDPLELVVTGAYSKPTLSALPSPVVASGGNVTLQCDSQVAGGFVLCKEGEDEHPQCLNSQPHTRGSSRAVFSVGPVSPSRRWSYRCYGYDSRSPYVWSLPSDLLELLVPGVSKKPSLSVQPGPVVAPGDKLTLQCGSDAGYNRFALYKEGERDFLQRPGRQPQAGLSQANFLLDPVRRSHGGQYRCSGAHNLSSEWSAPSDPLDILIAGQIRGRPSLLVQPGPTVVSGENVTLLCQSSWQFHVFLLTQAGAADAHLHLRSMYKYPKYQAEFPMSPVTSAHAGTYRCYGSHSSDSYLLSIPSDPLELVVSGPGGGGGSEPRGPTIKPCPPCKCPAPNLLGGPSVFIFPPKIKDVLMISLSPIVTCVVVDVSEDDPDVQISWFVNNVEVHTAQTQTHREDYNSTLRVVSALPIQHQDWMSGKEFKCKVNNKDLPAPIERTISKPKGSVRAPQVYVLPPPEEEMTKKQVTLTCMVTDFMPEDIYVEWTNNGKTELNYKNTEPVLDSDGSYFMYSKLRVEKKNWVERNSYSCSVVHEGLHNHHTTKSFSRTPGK
LILRB3 recombinant, full-length ectodomain (LILRB3 24-443), sequence (O75022 24-443): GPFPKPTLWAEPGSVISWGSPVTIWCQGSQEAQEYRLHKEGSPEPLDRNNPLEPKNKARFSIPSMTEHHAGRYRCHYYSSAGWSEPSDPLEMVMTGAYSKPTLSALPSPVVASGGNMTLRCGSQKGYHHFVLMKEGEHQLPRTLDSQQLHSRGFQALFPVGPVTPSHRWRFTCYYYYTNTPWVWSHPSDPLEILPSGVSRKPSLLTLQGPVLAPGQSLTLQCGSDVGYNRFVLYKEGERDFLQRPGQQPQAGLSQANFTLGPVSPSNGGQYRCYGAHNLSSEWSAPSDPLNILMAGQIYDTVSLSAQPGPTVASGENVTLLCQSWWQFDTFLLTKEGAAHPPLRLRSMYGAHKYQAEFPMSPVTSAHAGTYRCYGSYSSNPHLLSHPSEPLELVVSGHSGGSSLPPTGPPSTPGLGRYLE
T2 sequence (chain, as listed by the source I142T S155I I142T S155I limits assumed): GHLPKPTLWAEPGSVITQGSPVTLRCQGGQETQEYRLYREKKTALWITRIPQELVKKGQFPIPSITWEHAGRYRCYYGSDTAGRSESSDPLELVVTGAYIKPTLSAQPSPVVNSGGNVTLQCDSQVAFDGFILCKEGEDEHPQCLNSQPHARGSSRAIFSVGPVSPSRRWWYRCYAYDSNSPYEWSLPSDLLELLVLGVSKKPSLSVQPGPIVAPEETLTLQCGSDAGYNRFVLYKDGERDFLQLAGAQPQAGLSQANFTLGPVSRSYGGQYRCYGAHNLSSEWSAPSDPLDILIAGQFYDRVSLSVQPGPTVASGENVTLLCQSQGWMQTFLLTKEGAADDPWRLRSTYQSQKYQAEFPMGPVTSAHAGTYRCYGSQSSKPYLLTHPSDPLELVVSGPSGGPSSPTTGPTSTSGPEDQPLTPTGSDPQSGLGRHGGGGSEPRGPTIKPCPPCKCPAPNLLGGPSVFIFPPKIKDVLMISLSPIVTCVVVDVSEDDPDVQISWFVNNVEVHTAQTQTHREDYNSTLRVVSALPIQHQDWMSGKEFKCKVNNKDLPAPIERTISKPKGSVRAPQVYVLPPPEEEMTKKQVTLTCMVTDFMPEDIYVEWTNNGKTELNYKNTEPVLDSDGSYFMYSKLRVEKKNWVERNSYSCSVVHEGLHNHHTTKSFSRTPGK
T3 sequence (chain, as listed by the source L68P A93T L68P A93T limits assumed): as the sequence (chain, as listed by the source I142T S155I I142T S155I limits assumed) above, with L45P, A70T, T119I, I132S counted along it
T9 sequence (Q8N149 24-449 S135L): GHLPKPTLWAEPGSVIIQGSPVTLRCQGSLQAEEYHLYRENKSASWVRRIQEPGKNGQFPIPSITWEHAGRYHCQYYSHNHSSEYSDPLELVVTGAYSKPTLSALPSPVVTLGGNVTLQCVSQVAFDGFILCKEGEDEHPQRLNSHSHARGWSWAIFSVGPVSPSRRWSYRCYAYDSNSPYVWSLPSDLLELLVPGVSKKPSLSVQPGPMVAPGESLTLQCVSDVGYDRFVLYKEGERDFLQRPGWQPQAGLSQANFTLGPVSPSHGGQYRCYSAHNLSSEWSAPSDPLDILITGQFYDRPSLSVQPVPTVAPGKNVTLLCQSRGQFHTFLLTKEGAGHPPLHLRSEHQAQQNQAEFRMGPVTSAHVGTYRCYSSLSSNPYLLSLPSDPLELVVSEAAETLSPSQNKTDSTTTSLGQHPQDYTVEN
T1 sequence (chain, as listed by the source limits assumed): as the sequence (chain, as listed by the source I142T S155I I142T S155I limits assumed) above, with T119I, I132S counted along it
LILRA5 recombinant, full-length ectodomain (LILRA5 42-268), sequence (A6NI73 42-268): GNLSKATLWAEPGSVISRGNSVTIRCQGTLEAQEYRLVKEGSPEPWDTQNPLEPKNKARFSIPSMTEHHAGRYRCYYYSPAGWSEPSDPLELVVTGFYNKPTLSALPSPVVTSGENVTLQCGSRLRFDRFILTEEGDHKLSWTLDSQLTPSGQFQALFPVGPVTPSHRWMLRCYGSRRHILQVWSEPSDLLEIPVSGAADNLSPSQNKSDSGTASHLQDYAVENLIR
LILRB2 recombinant, full-length ectodomain (LILRB2 22-458), sequence (Q8N423 22-458): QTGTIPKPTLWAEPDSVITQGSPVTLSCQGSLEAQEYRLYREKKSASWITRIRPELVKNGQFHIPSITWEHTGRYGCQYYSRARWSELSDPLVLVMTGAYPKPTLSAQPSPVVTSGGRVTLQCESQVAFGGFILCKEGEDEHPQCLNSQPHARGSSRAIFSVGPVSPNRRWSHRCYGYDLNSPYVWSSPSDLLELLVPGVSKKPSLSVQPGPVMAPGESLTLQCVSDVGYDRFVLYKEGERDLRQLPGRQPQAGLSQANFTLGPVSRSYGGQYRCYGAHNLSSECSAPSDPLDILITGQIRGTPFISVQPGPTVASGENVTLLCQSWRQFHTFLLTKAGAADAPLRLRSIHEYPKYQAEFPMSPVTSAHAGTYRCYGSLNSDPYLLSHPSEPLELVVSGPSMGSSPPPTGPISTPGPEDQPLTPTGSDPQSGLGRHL
LILRA6 recombinant, full-length ectodomain (LILRA6 24-447), sequence (Q6PI73 24-447): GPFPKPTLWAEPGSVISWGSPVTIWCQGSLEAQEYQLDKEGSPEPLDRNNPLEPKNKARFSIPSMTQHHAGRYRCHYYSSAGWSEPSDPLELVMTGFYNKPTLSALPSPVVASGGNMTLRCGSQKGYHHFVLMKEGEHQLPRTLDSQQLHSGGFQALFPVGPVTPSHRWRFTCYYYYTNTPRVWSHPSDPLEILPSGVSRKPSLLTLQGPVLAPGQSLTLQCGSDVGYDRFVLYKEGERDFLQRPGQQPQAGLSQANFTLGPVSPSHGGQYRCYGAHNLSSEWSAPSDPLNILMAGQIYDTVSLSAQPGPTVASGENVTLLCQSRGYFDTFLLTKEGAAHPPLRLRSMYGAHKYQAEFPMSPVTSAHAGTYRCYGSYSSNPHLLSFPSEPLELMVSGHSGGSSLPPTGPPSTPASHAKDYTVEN

B1: Antibody 2 (antibody, V domains shown)
VH: QVQLVESGGDLVKPGGSLRLSCAASGFTFRDYYMSWIRQAPGKGLEWVSYISPSGSTIFYADSVKGRFTISRDNAKNSLYLQMNSLRAEDTAVYYCAKDRVRLFDYWGQGTLVTVSS
VL: EIVLTQSPATLSLSPGERATLSCRASQSVSSSYLAWYQQKPGQAPRLLIYGASTRATGIPARFSGSGSGTDFTLTISRLEPEDFAVYYCQQRSNWPITFGQGTRLEIK
notes: Fully human antibody; IgG1 and IgG1 LALA variants also made for functional assays; also called Clone 2; Antibody Clone 2
The EC50 is the concentration at which the effect is half-maximal. As for B1, the binding result in experiment [1] was “binds”; in experiment [2], “binds”; in [3] it was “binds”; in experiment [4], “no binding”; in experiment [5], “binds”; in experiment [6], “binds”. Also, the binding result (in the experiment with Human LILRA2 ectodomain; in [12]; in experiment [13]; in experiment [14]) was “no binding (tested: 1 nM)” throughout. In addition, the half-maximal effective concentration (EC50) turned out to be 740 pM in experiment [7]; 690 pM in [8]; 780 pM in experiment [9]; 840 pM with Human full length LILRA3; 920 pM in [10]; 8370 pM with Human LILRA1 ectodomain. Moreover, in [11], the EC50 was found to be 620 pM.

B2: Reference antibody 2 (anti-human LILRB2 Ab) (antibody, human IgG4 S228P, lambda, V domains shown)
VH: EVQLQQWGAGLLKPSETLSLTCAVYGGSFSGYYWSWIRQPPGKGLEWIGEINHAGSTNYNPSLKSRVTISVDTSKNQFSLKLSSVTAADTAVYYCARLPTRWVTTRYFDLWGRGTLVTVSS
VL: ESVLTQPPSVSGAPGQRVTISCTGSSSNIGAGYDVHWYQQLPGTAPKLLIYGDSNRPSGVPDRFSVSKSGASASLAITGLQAEDEADYYCQSFDNSLSAYVFGGGTQLTVLG
Consider B2, for which the binding result in the experiment with Human full length LILRB2 was “binds”.

B3: Reference Antibody 3 (anti-human LILRB1 and LILRB2 Ab) (antibody, V domains shown)
VH: QVQLVQSGAEVKKPGASVKVSCKASGYTFTDYYINWVRQAPGQGLEWMGNVNPNDGGTTYNQKFKGRVTMTTDTSTSTAYMELRSLRSDDTAVYYCARREIYFYGTIYYYAMDYWGQGTLVTVSS
VL: DIQLTQSPSFLSASVGDRVTITCRASESVDYYGNSFMYWYQQKPGKAPKLLIYFASNLESGVPSRFSGSGSGTEFTLTISSLQPEDFATYYCQQNNEDPWTFGGGTKVEIK
Turning to B3, the binding result with Human full length LILRB2 and in the experiment with Human full length LILRB1 was “binds” each time.
